Reference: patent US20150246949A1, “Desmoglein 2 (DSG2) Binding Proteins and Uses Therefor” (UNIVERSITY OF WASHINGTON THROUGH ITS CENTER FOR …, priority 2012, published 2015)

Tested on: Ad3-GFP virus
Test: Competition of Ad3-GFP virus infection on HeLa cells
Format: cell-based, adenovirus serotype 3 (Ad3)
Details: HeLa cells pre-incubated with knob, 100 pfu/cell Ad3-GFP, GFP at 18 hours
Method: FIG. 3. Competition of Ad3 virus by dimerized Ad3 knob mutants. A) Relative attachment of ^3H-labeled Ad3 virus in the presence of dimeric fiber knob mutants. 1.8×10^5 HeLa cells were incubated with Ad3 knob mutants at a concentration of 2.5 and 100 μg/ml on ice for 1 hour. Then 400 pfu/cell of ^3H-Ad3 virus was added on ice for another hour. Unbound virus particles were washed away. Attachment of virus particles incubated with PBS was taken as 100%. N=3. B) Competition of Ad3-GFP virus infection on HeLa cells. 1.5×10^5 HeLa cells were seeded into 24 well plates. Cells were incubated with the Ad3 knob mutants at increasing concentrations for one hour at room temperature. 100 pfu/cell of Ad3-GFP virus were then added and GFP expression was analyzed 18 hours later by flow cytometry. Left panel: percentage of GFP positive cells. Right panel: mean fluorescence intensity. N=3. The standard deviation was less than 10%. C) Relative attachment of ^3H-labeled Ad3 virus in the presence of dimeric fiber knob mutants with multiple mutations. The study was performed as described in […]) The standard deviation was less than 10%. D) Competition of Ad3-GFP virus infection on HeLa cells. The study was performed as described in C) The standard deviation was less than 10%.
FIG. 9. Analysis of dimeric Ad3 fiber knob mutants with increased affinity to DSG2. A) Competition of Ad3-GFP virus infection on HeLa cells with dimeric affinity-enhanced mutant Y250F and JO-1 (dimeric wt Ad3 fiber knob). The experimental setting is as described for FIG. 3C. left panel: percentage of GFP positive cells. Right panel: mean fluorescence intensity. N=3. The standard deviation was less than 10%. […] 100 pfu/cell of Ad3GFP virus were then added and GFP expression was analyzed 18 hours later. […]
Competition studies were performed on HeLa cells, which express DSG2 (42). […] Transduction was measured based on GFP expression (FIG. 3B). […] Dimeric Ad3 knob mutants with combined mutations were also analyzed for their ability to compete with Ad3 virus for attachment (FIG. 3C) and infection (FIG. 3D).

B1: D261N (protein)
chain: MKVSALKEKVSALKEKVSALKEKVSALKEKVSALKEGSGGGSGGGSGGGSNSIALKNNTLWTGPKPEANCIIEYGKQNPDSKLTLILVKNGGIVNGYVTLMGASDYVNTLFKNKNVSINVELYFDATGHILPDSSSLKTDLELKYKQTADFSARGFMPSTTAYPFVLPNAGTHNENYIFGQCYYKASNGALFPLEVTVMLNKRLPDSRTSYVMTFLWSLNAGLAPETTQATLITSPFTFSYIREDD
Competition of Ad3-GFP infection based on GFP expression: least reduced
